In assay [1] the target is T1, full-length FLAG-tagged Dicer (F-Dicer), baculovirus/Sf9 (human, UniProt Q9UPY3 1-1922). Briefly: SEC. (In gel filtration, larger molecules generally elute earlier.)
The target in assay [2] is F-DicerΔ3 mutant lacking the DUF283 domain (human). Put plainly: co-IP.
Assay [3] addresses F-DicerΔN1 lacking a part of the DEAD-box RNA helicase domain (human). Put plainly: co-IP.
Assay [4] has as its target T1, full-length FLAG-tagged Dicer …. Briefly: pull-down + co-IP.

The term stoichiometry N denotes the number of molecules, sites or subunits per partner or assembly.

Bounds are passed on as bounds.

T1 sequence (Q9UPY3 whole entry, the tested form may be a part): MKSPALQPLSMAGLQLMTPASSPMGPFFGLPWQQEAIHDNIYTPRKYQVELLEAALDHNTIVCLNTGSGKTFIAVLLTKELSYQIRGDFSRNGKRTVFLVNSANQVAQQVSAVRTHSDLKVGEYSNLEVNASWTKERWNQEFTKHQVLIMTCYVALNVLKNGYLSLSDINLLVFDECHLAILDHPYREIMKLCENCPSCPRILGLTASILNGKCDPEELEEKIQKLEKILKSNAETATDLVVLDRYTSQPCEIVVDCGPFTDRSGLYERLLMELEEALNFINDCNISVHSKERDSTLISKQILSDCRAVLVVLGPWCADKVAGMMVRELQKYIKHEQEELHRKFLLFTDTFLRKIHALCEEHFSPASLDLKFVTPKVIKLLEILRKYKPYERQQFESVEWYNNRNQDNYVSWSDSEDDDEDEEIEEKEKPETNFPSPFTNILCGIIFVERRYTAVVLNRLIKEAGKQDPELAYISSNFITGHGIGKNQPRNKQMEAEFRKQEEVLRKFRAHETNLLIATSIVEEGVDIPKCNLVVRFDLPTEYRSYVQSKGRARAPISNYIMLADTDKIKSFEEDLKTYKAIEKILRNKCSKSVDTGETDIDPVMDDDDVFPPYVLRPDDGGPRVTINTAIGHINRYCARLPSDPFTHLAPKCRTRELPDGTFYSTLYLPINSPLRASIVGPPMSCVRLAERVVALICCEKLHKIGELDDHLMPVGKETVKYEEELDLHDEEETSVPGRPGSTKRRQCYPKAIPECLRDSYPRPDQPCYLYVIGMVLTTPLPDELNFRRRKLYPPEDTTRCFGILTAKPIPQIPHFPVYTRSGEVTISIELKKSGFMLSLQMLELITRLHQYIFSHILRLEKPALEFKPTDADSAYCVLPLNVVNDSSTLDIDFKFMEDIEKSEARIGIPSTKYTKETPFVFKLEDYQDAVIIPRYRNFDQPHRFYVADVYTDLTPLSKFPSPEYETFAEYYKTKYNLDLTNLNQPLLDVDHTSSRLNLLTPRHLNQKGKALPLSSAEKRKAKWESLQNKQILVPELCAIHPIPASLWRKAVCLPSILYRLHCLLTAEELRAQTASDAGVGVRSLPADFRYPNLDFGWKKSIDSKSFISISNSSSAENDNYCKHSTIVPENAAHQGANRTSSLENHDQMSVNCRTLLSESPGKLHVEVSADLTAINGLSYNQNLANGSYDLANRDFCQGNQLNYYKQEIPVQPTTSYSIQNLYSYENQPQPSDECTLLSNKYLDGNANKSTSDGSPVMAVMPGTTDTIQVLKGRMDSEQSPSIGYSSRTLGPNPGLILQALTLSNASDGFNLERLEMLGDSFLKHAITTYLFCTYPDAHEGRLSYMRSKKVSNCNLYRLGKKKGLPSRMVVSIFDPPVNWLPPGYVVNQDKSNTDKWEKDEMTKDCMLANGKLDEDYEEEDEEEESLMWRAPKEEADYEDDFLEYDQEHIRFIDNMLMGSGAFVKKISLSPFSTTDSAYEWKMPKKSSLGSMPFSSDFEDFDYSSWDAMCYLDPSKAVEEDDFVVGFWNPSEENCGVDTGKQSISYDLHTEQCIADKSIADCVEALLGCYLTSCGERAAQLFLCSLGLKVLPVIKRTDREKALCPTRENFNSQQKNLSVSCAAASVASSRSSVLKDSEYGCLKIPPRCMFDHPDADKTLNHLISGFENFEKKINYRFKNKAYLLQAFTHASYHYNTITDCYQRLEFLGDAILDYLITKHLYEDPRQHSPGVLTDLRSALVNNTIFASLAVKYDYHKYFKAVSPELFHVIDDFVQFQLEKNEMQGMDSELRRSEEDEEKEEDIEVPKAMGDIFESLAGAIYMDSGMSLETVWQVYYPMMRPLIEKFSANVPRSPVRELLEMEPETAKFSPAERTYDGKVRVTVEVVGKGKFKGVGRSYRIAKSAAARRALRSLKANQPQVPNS
Chain of F-DicerΔN1 lacking a part of the DEAD-box RNA helicase domain (human) (Q9UPY3 whole entry, stated change not applied, the tested form may be a part): as the sequence (Q9UPY3 whole entry, the tested form may be a part) above
Chain of F-DicerΔ3 mutant lacking the DUF283 domain (human) (Q9UPY3 whole entry, stated change not applied, the tested form may be a part): as the sequence (Q9UPY3 whole entry, the tested form may be a part) above

B1: full-length HAT (histidine affinity tag)-tagged ADAR1p110 (H-ADAR1p110), baculovirus/Sf9 (natural protein, human, UniProt P55265-5 1-931, looked up)
chain: MAEIKEKICDYLFNVSDSSALNLAKNIGLTKARDINAVLIDMERQGDVYRQGTTPPIWHLTDKKRERMQIKRNTNSVPETAPAAIPETKRNAEFLTCNIPTSNASNNMVTTEKVENGQEPVIKLENRQEARPEPARLKPPVHYNGPSKAGYVDFENGQWATDDIPDDLNSIRAAPGEFRAIMEMPSFYSHGLPRCSPYKKLTECQLKNPISGLLEYAQFASQTCEFNMIEQSGPPHEPRFKFQVVINGREFPPAEAGSKKVAKQDAAMKAMTILLEEAKAKDSGKSEESSHYSTEKESEKTAESQTPTPSATSFFSGKSPVTTLLECMHKLGNSCEFRLLSKEGPAHEPKFQYCVAVGAQTFPSVSAPSKKVAKQMAAEEAMKALHGEATNSMASDNQPEGMISESLDNLESMMPNKVRKIGELVRYLNTNPVGGLLEYARSHGFAAEFKLVDQSGPPHEPKFVYQAKVGGRWFPAVCAHSKKQGKQEAADAALRVLIGENEKAERMGFTEVTPVTGASLRRTMLLLSRSPEAQPKTLPLTGSTFHDQIAMLSHRCFNTLTNSFQPSLLGRKILAAIIMKKDSEDMGVVVSLGTGNRCVKGDSLSLKGETVNDCHAEIISRRGFIRFLYSELMKYNSQTAKDSIFEPAKGGEKLQIKKTVSFHLYISTAPCGDGALFDKSCSDRAMESTESRHYPVFENPKQGKLRTKVENGEGTIPVESSDIVPTWDGIRLGERLRTMSCSDKILRWNVLGLQGALLTHFLQPIYLKSVTLGYLFSQGHLTRAICCRVTRDGSAFEDGLRHPFIVNHPKVGRVSIYDSKRQSGKTKETSVNWCLADGYDLEILDGTRGTVDGPRNELSRVSKKNIFLLFKKLCSFRYRRDLLRLSYGEAKKAARDYETAKNYFKKGLKDMGYGNWISKPQEEKNFYLCPV
B1: the “stoichiometry N” value in assay [1] was 1 ADAR1 per Dicer; in assay [4], roughly 1 ADAR1 per Dicer. In addition, the fold reduction of interaction against full-length F-Dicer in assay [2] and in assay [3] was less than 4 fold each time.

The values above are taken from PMC3651894 (Cell, 2013).
